Molecular target: T1, His-NEK8 (UniProt Q86SG6 1-692)
T1 construct: NEK8 (NIMA-related kinase 8); also called His-tagged NEK8; source: E. coli BL21, purified (Ni-NTA agarose)
T1 sequence (looked up): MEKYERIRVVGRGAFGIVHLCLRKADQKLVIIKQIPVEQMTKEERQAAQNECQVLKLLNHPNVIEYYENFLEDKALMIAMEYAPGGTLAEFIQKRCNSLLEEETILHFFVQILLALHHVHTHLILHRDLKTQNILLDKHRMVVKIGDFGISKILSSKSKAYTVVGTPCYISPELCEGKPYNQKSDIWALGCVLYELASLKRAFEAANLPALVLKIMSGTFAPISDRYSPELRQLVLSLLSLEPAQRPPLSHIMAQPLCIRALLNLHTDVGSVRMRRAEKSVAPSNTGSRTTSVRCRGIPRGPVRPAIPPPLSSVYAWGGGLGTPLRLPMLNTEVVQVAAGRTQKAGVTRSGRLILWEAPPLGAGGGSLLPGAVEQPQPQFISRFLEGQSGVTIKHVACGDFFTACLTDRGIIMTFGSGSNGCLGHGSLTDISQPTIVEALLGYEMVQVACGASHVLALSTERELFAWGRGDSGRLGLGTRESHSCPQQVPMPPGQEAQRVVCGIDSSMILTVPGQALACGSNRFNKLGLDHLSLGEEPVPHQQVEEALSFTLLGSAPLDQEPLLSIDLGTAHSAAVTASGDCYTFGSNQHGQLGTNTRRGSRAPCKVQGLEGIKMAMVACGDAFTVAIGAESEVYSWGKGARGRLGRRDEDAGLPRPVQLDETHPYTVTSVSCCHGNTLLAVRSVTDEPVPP
Experiment: pull-down; GST affinity isolation: GST-tagged NEK8 or ASNS proteins on glutathione-Sepharose 4B beads incubated with His-tagged ASNS or NEK8 at 4 °C for five hours; wash with GST binding buffer (2 mM EDTA, 50 mM NaF, 100 mM NaCl, 1% NP-40); immunoblotting
Conditions: both partners purified

- binding result: binds
B1: GST-ASNS full-length (enzyme, UniProt P08243 1-561, looked up)
chain: MCGIWALFGSDDCLSVQCLSAMKIAHRGPDAFRFENVNGYTNCCFGFHRLAVVDPLFGMQPIRVKKYPYLWLCYNGEIYNHKKMQQHFEFEYQTKVDGEIILHLYDKGGIEQTICMLDGVFAFVLLDTANKKVFLGRDTYGVRPLFKAMTEDGFLAVCSEAKGLVTLKHSATPFLKVEPFLPGHYEVLDLKPNGKVASVEMVKYHHCRDVPLHALYDNVEKLFPGFEIETVKNNLRILFNNAVKKRLMTDRRIGCLLSGGLDSSLVAATLLKQLKEAQVQYPLQTFAIGMEDSPDLLAARKVADHIGSEHYEVLFNSEEGIQALDEVIFSLETYDITTVRASVGMYLISKYIRKNTDSVVIFSGEGSDELTQGYIYFHKAPSPEKAEEESERLLRELYLFDVLRADRTTAAHGLELRVPFLDHRFSSYYLSLPPEMRIPKNGIEKHLLRETFEDSNLIPKEILWRPKEAFSDGITSVKNSWFKILQEYVEHQVDDAMMANAAQKFPFNTPKTKEGYYYRQVFERHYPGRADWLSHYWMPKWINATDPSARTLTHYKSAVKA
notes: asparagine synthetase (ASNS), full-length (FL); also called FL

Reference: publication PMC11702068, “NEK8 promotes the progression of gastric cancer by reprogramming asparagine metabolism” (Molecular Medicine, 2025)
